According to publication PMC12416549 (2024):
Changes are numbered by the printed parent chain. Names and notes keep the numbering of the source.

B1: K18H (designed binder)
chain: SMEEEVEKAAKEYEKKKHEAIEKHLEKLKAKDKEAAERFLKELEEAAKEYAKDEAKTMSEEEAKRRAKKYKEKVLLSELSEEEQKEIKEAEEKLVRTILKYVEEAAK
B2: A30P (designed binder)
chain: B1 chain with H18K, A30P
B3: L94H (designed binder)
chain: B1 chain with H18K, L94H
B4: V6F (designed binder)
chain: B1 chain with V6F, H18K
B5: E42N (designed binder)
chain: B1 chain with H18K, E42N
B6: E82F (designed binder)
chain: B1 chain with H18K, E82F
B7: S77N (designed binder)
chain: B1 chain with H18K, S77N
B8: Y101A (designed binder)
chain: B1 chain with H18K, Y101A
B9: K93M (designed binder)
chain: B1 chain with H18K, K93M
B10: A46T (designed binder)
chain: B1 chain with H18K, A46T
B11: T57Y (designed binder)
chain: B1 chain with H18K, T57Y
B12: E12G (designed binder)
chain: B1 chain with E12G, H18K
B13: K68R (designed binder)
chain: B1 chain with H18K, K68R
B14: V102I (designed binder)
chain: B1 chain with H18K, V102I
B15: M2P (designed binder)
chain: B1 chain with M2P, H18K
B16: E22L (designed binder)
chain: B1 chain with H18K, E22L
B17: K68A (designed binder)
chain: B1 chain with H18K, K68A
B18: K64N (designed binder)
chain: B1 chain with H18K, K64N
B19: S1N (designed binder)
chain: B1 chain with S1N, H18K
B20: E81Q (designed binder)
chain: B1 chain with H18K, E81Q
B21: E42Q (designed binder)
chain: B1 chain with H18K, E42Q
B22: K16P (designed binder)
chain: B1 chain with K16P, H18K
B23: S77G (designed binder)
chain: B1 chain with H18K, S77G
B24: K27T (designed binder)
chain: B1 chain with H18K, K27T
B25: A10F (designed binder)
chain: B1 chain with A10F, H18K
B26: K93P (designed binder)
chain: B1 chain with H18K, K93P
B27: K52C (designed binder)
chain: B1 chain with H18K, K52C
B28: A47S (designed binder)
chain: B1 chain with H18K, A47S
B29: K68T (designed binder)
chain: B1 chain with H18K, K68T
B30: K100N (designed binder)
chain: B1 chain with H18K, K100N
B31: S80W (designed binder)
chain: B1 chain with H18K, S80W
B32: E45S (designed binder)
chain: B1 chain with H18K, E45S
B33: L79M (designed binder)
chain: B1 chain with H18K, L79M
B34: K88N (designed binder)
chain: B1 chain with H18K, K88N
B35: K71H (designed binder)
chain: B1 chain with H18K, K71H
B36: E72S (designed binder)
chain: B1 chain with H18K, E72S
B37: K33A (designed binder)
chain: B1 chain with H18K, K33A
B38: L79S (designed binder)
chain: B1 chain with H18K, L79S
B39: K41M (designed binder)
chain: B1 chain with H18K, K41M
B40: K69C (designed binder)
chain: B1 chain with H18K, K69C
B41: A106T (designed binder)
chain: B1 chain with H18K, A106T
B42: R65Q (designed binder)
chain: B1 chain with H18K, R65Q
B43: E86F (designed binder)
chain: B1 chain with H18K, E86F
B44: A30T (designed binder)
chain: B1 chain with H18K, A30T
B45: K93D (designed binder)
chain: B1 chain with H18K, K93D
B46: A35K (designed binder)
chain: B1 chain with H18K, A35K
B47: A10N (designed binder)
chain: B1 chain with A10N, H18K
B48: E103A (designed binder)
chain: B1 chain with H18K, E103A
B49: I21K (designed binder)
chain: B1 chain with H18K, I21K
B50: E61N (designed binder)
chain: B1 chain with H18K, E61N
B51: V74W (designed binder)
chain: B1 chain with H18K, V74W
B52: A106P (designed binder)
chain: B1 chain with H18K, A106P
B53: R96G (designed binder)
chain: B1 chain with H18K, R96G
B54: K23C (designed binder)
chain: B1 chain with H18K, K23C
B55: K33G (designed binder)
chain: B1 chain with H18K, K33G
B56: A46P (designed binder)
chain: B1 chain with H18K, A46P
B57: E72I (designed binder)
chain: B1 chain with H18K, E72I
B58: A106R (designed binder)
chain: B1 chain with H18K, A106R
B59: E104L (designed binder)
chain: B1 chain with H18K, E104L

Target: T1, TNFR1 (Homo sapiens, UniProt P19438)
T1 chain: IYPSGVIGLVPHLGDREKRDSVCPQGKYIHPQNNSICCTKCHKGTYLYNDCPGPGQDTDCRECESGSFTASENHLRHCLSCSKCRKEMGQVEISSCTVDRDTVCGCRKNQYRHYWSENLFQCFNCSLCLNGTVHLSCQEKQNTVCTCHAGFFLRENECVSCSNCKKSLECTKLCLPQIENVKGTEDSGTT
Test: yeast display SC50

Row | Binder | apparent Kd (screen) [nM]
1 | B1 | 1.27
2 | B2 | 11.4
3 | B3 | 0.446
4 | B4 | 2.25
5 | B5 | 7.07
6 | B6 | 0.539
7 | B7 | 3
8 | B8 | 0.405
9 | B9 | 0.718
10 | B10 | 2.73
11 | B11 | 0.0802
12 | B12 | 0.49
13 | B13 | 0.718
14 | B14 | 2.73
15 | B15 | 0.49
16 | B16 | 0.869
17 | B17 | 1.05
18 | B18 | 0.653
19 | B19 | 0.593
20 | B20 | 0.593

Row | Binder | apparent Kd (screen) [nM]
21 | B21 | 9.41
22 | B22 | 18.3
23 | B23 | 2.48
24 | B24 | 0.956
25 | B25 | 10.4
26 | B26 | 8.56
27 | B27 | 1.27
28 | B28 | 2.05
29 | B29 | 1.4
30 | B30 | 0.956
31 | B31 | 3
32 | B32 | 2.73
33 | B33 | 0.79
34 | B34 | 0.446
35 | B35 | 0.593
36 | B36 | 2.73
37 | B37 | 0.49
38 | B38 | 2.73
39 | B39 | 0.446
40 | B40 | 2.48

Row | Binder | apparent Kd (screen) [nM]
41 | B41 | 1.54
42 | B42 | 0.304
43 | B43 | 1.86
44 | B44 | 1.16
45 | B45 | 0.446
46 | B46 | 0.49
47 | B47 | 2.48
48 | B48 | 0.446
49 | B49 | 0.446
50 | B50 | 1.4
51 | B51 | 0.49
52 | B52 | 0.653
53 | B53 | 2.73
54 | B54 | 0.49
55 | B55 | 1.16
56 | B56 | 11.4
57 | B57 | 0.718
58 | B58 | 3
59 | B59 | 0.49
